Reference: article PMC7930385, “A Novel SOD1 Intermediate Oligomer, Role of Free Thiols and Disulfide Exchange” (Frontiers in Neuroscience, 2020)

Target: the molecule itself
Experiment: thioflavin-T fluorescence of fibrillation + electron microscopy; 40 μM apo protein in 10 mM potassium phosphate, pH 7.0, with TCEP (0-10 mM) and 40 μM thioflavin-T, 37°C, agitated at 300 rpm in 96-well plates with a Teflon ball; fibrils seen by negative-stain EM

B1: apo C6A/C111S human SOD1 (apo AS-SOD1) (enzyme)
chain: not shown
modifications: no N-terminal acetylation (expression in E. coli); metal-free (apo); C57-C146 disulfide intact at the start and reduced by TCEP in the reaction
notes: Cu/Zn superoxide dismutase 1 (SOD1), human, 153-residue subunit, both free cysteines removed (C6A, C111S); numbers count on: the mature protein (numbered from A1); The printed mass of AS S-S (15756.43 Da) appears to fit the 153-residue chain without Met and without acetyl; also called AS mutant; apo AS^S–S; source: E. coli, purified, demetallated by dialysis (apo)
B1: binds.
